System: O=C[C@H](O)COP(=O)(O)O
Experiment: purified protein
Type: biochemical, Homo sapiens
Details: without HA

Row | Substance | Km [µM] | kcat [s⁻¹] | kcat/Km [M⁻¹ s⁻¹]
1 | Hs-GAPDH (Homo sapiens) | 240 ± 20 | 21.7 ± 1.67 | 90000
2 | Hs-GAPDH (Homo sapiens; A232S/F233V) | 490 ± 210 | 7.67 ± 2 | 15700
